For experiment [1], the target named is N-terminal cytoplasmic domain of the a1 isoform of subunit a of human V-ATPase (residues 1-353) (human) (UniProt Q93050). Description: SPR; Biacore T100; C1, H or a1NT amine-coupled to CM5; 20 mM HEPES-NaOH, 300 mM NaCl, 1 mM DTT, 0.05% P20, pH 7.5, 10°C; KD from steady-state Req against analyte concentration, 1:1 Langmuir isotherm. A general note: In SPR one partner is held on a chip, and binding of the other changes the refractive index at the surface.

For experiment [2], the target named is Human V-ATPase subunit H (non-tagged) (human) (UniProt Q9UI12). The experiment is described as above.
Human V-ATPase subunit H (non-tagged) (human), sequence (Q9UI12 whole entry): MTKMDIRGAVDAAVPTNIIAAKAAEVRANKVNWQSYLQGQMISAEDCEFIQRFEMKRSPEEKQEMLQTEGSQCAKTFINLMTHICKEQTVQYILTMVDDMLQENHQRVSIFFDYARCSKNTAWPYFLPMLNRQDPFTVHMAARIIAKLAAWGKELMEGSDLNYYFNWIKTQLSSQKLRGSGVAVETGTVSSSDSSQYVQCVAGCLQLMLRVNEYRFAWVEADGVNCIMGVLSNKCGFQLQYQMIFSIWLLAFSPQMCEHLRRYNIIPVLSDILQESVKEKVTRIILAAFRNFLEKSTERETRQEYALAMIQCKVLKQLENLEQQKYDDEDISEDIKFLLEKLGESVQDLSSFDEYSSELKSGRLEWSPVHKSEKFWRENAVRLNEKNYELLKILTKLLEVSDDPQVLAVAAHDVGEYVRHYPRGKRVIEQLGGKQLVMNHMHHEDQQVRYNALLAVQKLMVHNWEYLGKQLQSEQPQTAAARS
Experiment [3] deals with Human V-ATPase subunit C1 (human) (UniProt P21283). The description is as above.
Human V-ATPase subunit C1 (human), sequence (P21283 whole entry): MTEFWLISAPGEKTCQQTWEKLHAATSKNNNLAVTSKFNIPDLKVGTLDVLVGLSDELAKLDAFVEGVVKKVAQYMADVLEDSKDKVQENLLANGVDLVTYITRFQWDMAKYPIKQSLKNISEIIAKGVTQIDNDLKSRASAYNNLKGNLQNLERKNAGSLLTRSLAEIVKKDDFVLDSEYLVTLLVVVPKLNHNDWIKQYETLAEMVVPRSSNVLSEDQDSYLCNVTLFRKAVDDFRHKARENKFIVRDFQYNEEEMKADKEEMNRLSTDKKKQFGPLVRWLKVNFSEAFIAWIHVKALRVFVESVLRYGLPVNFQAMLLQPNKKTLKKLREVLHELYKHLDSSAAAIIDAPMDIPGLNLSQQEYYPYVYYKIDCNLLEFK
For experiment [4] the target is unchanged. Nature of the experiment: SPR; C1 immobilised on CM5; response at 10 µM analyte (E1G1, a1NT, or both together).
The target in experiment [5] is V-ATPase a NT (Saccharomyces cerevisiae) (UniProt P32563). Nature of the experiment: ITC. The settings on record: cited from earlier work.
V-ATPase a NT (Saccharomyces cerevisiae), sequence (P32563 104-372): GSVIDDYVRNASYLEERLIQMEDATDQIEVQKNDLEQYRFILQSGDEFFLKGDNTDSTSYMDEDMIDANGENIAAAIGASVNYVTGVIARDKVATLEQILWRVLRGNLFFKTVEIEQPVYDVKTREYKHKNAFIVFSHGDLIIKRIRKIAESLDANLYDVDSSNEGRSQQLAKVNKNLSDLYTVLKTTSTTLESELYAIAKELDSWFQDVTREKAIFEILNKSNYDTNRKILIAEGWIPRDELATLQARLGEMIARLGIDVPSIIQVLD

Results on 5 substances are retold here after article PMC3569449.

V-ATPase C foot, sequence (P31412 2-157): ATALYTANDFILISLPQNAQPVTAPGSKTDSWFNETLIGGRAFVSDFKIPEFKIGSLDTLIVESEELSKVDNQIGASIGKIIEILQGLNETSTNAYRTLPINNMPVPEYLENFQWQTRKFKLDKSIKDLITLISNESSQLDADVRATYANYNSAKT
V-ATPase C foot, sequence (P31412 278-392): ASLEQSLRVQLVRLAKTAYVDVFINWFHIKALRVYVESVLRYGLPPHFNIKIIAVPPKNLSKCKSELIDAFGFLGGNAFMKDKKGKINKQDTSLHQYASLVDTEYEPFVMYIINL
N-terminal cytoplasmic domain of the a1 isoform of subunit a of human V-ATPase (residues 1-353) (human), sequence (Q93050 1-353): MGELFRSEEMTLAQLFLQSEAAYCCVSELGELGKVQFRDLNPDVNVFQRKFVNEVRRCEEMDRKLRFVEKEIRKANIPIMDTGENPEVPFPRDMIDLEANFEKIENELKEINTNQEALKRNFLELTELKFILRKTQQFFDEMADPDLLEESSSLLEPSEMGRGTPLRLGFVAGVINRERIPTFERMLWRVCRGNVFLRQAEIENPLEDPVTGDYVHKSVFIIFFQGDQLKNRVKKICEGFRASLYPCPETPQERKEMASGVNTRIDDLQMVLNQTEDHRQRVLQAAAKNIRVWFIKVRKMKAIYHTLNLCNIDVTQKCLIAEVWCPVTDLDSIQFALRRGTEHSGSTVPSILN
V-ATPase EG, sequence (P22203 2-233): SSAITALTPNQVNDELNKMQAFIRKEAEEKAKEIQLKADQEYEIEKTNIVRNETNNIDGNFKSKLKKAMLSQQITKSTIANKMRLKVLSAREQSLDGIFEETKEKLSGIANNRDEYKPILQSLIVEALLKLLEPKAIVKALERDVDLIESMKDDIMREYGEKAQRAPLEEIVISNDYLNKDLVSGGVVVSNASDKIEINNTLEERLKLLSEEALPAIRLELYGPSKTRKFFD
V-ATPase EG, sequence (P48836 2-114, further chain): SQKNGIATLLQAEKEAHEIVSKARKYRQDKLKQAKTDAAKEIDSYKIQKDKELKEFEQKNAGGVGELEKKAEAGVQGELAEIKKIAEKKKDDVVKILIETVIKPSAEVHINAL

Broadly, the Kd is the constant that tells how readily two partners part at equilibrium. On to “E1G1 heterodimer of human V-ATPase (subunits E1 and G1, co-expressed and co-purified) (from UniProt P36543 1-226; O75348 1-118) (complex)”, for which the Kd in experiment [1] came out at 210 nM.
Consider “Human V-ATPase subunit C1 (from UniProt P21283 1-382) (natural protein)”, for which the dissociation constant (Kd) in experiment [2] was found to be 1400 nM.
As to “N-terminal cytoplasmic domain of the a1 isoform of subunit a of human V-ATPase (residues 1-353) (from UniProt Q93050 1-353) (domain or fragment)”, the Kd in experiment [3] worked out at 3000 nM; in experiment [2], 360 nM. Also, the response at 10 µM analyte in experiment [4] worked out at 45 RU.
Consider V-ATPase C foot (from UniProt P31412), for which the equilibrium dissociation constant (Kd) in experiment [5] was 22000 nM.
In the case of V-ATPase EG (from UniProt P22203), the equilibrium dissociation constant (Kd) in experiment [5] is 33000 nM.
